Data published in article doi:10.1101/2020.05.27.119552.

Target: dHtt-eGFP fusion protein (Drosophila Huntingtin with a C-terminal eGFP tag) (Drosophila)
Experiment: affinity purification with mass spectrometry

CG8134/dHap40 (Drosophila HAP40), endogenous ~40 kDa protein (from UniProt Q9VXR6 1-345) (natural protein)
stoichiometry N: 1 molar ratio
